From PMC314469, “Protein Interaction Networks by Proteome Peptide Scanning” (PLoS Biology, 2004)

T1: Yfr024 SH3 (LSB3_YEAST), P43603
T1 chain: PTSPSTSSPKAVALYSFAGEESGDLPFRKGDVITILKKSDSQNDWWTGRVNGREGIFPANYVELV

T2: Boi1 SH3 (BOI1_YEAST), P38041
T2 chain: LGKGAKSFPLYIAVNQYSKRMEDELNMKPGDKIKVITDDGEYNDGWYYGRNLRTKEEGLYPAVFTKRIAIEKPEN

T3: Boi2 SH3 (BOI2_YEAST), P39969
T3 chain: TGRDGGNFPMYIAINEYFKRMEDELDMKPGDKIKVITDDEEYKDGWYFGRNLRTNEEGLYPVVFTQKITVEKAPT

T4: Rvs167 SH3 (RV167_YEAST), P39743
T4 chain: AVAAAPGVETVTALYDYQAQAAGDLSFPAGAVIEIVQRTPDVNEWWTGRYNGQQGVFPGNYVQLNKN

T5: Yhr016c SH3 (YSC84_YEAST), P32793
T5 chain: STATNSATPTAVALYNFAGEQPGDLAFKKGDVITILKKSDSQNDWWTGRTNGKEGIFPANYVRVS

B1: YLR147C 88-101 (peptide)
chain: SSRPMPPIRGPKRR
B2: YER173W 28-41 (peptide)
chain: SSRPTSPVRKARST
B3: YLR430W 2218-2231 (peptide)
chain: SSSPFIPKKRKPRS
B4: YHR164C 158-171 (peptide)
chain: SSTPIVPNRLKTVL
B5: YHR182W 758-771 (peptide)
chain: SSTPTTPERPKRKS
B6: YGR133W 86-99 (peptide)
chain: SSYPMNPPKISFMQ
B7: YMR192W 200-213 (peptide)
chain: STPPTLPPRRIEDP
B8: YJR090C 50-63 (peptide)
chain: STRPQMPSRTRETA
B9: YPL249C 293-306 (peptide)
chain: STSPKLPPRGKQRE
B10: YDR538W 48-61 (peptide)
chain: STSPPRPKRIVVAI
B11: YOR326W 1092-1105 (peptide)
chain: SVLPQTPLKDVMGG
B12: YPR040W 50-63 (peptide)
chain: TAAPATPPRHISNN
B13: YNL321W 116-129 (peptide)
chain: TATPSSPKRMHSSI
B14: YPR018W 481-494 (peptide)
chain: TDGPIDPFKEPKTS
B15: YNR021W 264-277 (peptide)
chain: TDLPVNPPRDDKEW
B16: YPR115W 471-484 (peptide)
chain: TDPPPQPRRLSDIV
B17: YDL197C 472-485 (peptide)
chain: TDSPQLPSKDKSQE
B18: YBR082C 59-72 (peptide)
chain: TDYPFKPPKISFTT
B19: YDR059C 59-72 (peptide)
chain: TDYPFKPPKVNFTT
B20: YHR129C 114-127 (peptide)
chain: TEAPMNPLKNREQM
B21: YDL029W 109-122 (peptide)
chain: TEPPMNPLKNREKM
B22: YDR464W 568-581 (peptide)
chain: TEVPSKPKKPSKTE

Assays:
Assay in all cases: SPOT array
[1] = target: T1, Yfr024 SH3 (LSB3_YEAST), P43603
[2] = target: T2, Boi1 SH3 (BOI1_YEAST), P38041
[3] = target: T3, Boi2 SH3 (BOI2_YEAST), P39969
[4] = target: T4, Rvs167 SH3 (RV167_YEAST), P39743
[5] = target: T5, Yhr016c SH3 (YSC84_YEAST), P32793

Binder	normalised SPOT signal, Boehringer light units (BLU); mean over the file's lines of this peptide [1]	normalised SPOT signal, Boehringer light units (BLU); mean over the file's lines of this peptide [2]	normalised SPOT signal, Boehringer light units (BLU); mean over the file's lines of this peptide [3]	normalised SPOT signal, Boehringer light units (BLU); mean over the file's lines of this peptide [4]	normalised SPOT signal, Boehringer light units (BLU); mean over the file's lines of this peptide [5]
B1	11600	1100	376	771	1900
B2	1780	368	73.1	98.3	317
B3	1970	76.5	92	42.9	258
B4	6570	56.2	10.8	1490	1960
B5	58100	818	36.8	579	31700
B6	440	17.1	111	65.4	215
B7	27500	194	44.5	24400	49300
B8	4030	311	43.5	74.7	37.5
B9	20400	5220	90.9	57900	72500
B10	3980	356	79.7	182	1340
B11	179	100	10.3	44.5	127
B12	30400	275	41.4	13200	58900
B13	534	50.9	36.1	81.7	244
B14	0	136	58.5	33.8	0
B15	94.9	88.1	46.1	56.5	119
B16	5490	69.1	36	122	1780
B17	4380	116	-0	95.6	95.8
B18	374	54.7	89.1	43.3	116
B19	570	58.8	65.8	93.6	232
B20	395	1.9	56.4	21.5	319
B21	648	87.1	55.1	147	125
B22	3310	361	39.9	75.4	67.2
